Our source for the α-galactosidase activity values is publication PMC2935870.

The target in the test is pGBKT7-53. Kind of test: two-hybrid.

Substance pGADT7-T (domain or fragment) gave a α-galactosidase activity of 22.
